Patent US20240084042A1 (Genentech, published 2024)

T1: human KLK5 (human, UniProt Q9Y337 67-293)
T1 sequence: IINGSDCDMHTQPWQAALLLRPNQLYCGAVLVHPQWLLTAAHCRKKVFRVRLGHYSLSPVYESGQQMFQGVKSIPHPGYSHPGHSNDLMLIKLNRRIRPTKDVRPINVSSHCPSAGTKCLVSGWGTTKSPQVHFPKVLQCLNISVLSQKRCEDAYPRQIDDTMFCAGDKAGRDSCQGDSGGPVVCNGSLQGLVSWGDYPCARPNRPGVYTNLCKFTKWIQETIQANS

T2: cynomolgus monkey KLK5 (cynomolgus monkey, UniProt Q9Y337 67-293 (human entry))
T2 chain: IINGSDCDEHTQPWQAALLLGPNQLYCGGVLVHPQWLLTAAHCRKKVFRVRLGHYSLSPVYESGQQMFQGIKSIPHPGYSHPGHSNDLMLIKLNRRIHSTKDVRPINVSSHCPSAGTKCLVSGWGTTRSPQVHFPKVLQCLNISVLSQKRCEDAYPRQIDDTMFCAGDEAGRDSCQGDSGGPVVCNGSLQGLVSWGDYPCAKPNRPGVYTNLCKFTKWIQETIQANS


Assays:
[1] = molecular target: human KLK7 (SEQ ID NO: 4 plus a C-terminal FLAG tag) (human, UniProt P49862 30-253); test: cell-based or functional assay
human KLK5 [2] = molecular target: T1, human KLK5; test: cell-based or functional assay
[3] = molecular target: cyano KLK7 (SEQ ID NO: 6 plus a C-terminal FLAG tag) (cynomolgus monkey, UniProt P49862 30-253 (human entry)); test: cell-based or functional assay
cynomolgus monkey KLK5 [4] = molecular target: T2, cynomolgus monkey KLK5; test: cell-based or functional assay
human KLK7 [5] = molecular target: T3, human KLK7 (human, UniProt P49862 30-253); test: SPR BIAcore 8K, antibody on protein A chip, 37 C
T3 construct: Antigen injected in SPR; also called hu KLK7; huKLK7
Protocol: The binding affinity of the humanized antibodies was determined by BIAcore™ 8K SPR system. For kinetics measurements, antibodies were captured on research grade protein A chip (GE Healthcare) to achieve approximately 300 RU. Ten-fold serial dilutions of human KLK7 were injected in HBS-P buffer at 37° C. with a flow rate of 100 μL/min. Association rates (ka) and dissociation rates (kd) were calculated using a 1:1 Langmuir binding model (BIAcore Insight Evaluation Software version 2.0). The equilibrium dissociation constant (KD) was calculated as the ratio kd/ka.

human KLK5 [6] = molecular target: T1, human KLK5; test: kinetics of bispecific antibody, method not restated (SPR implied)
cynomolgus monkey KLK5 [7] = molecular target: T2, cynomolgus monkey KLK5; test: as above
human KLK7 [8] = molecular target: T3, human KLK7; test: as above
cynomolgus monkey KLK7 = molecular target: T4, cynomolgus monkey KLK7 (cynomolgus monkey, UniProt P49862 30-253 (human entry)); test: as above
T4 construct: Antigen injected in SPR; also called Cy KLK7; cyno KLK7
T4 sequence (P49862 other isoform, or with tags, fused parts or gaps): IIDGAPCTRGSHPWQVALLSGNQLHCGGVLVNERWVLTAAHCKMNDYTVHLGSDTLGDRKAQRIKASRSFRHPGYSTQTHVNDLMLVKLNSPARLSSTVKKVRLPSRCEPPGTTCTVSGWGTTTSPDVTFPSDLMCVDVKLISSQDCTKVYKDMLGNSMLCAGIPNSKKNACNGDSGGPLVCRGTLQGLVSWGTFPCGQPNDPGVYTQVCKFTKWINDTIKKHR

cyano KLK7 (SEQ ID NO: 6 plus a C-terminal FLAG tag), sequence (P49862 other isoform, or with tags, fused parts or gaps): as above
T3 sequence (P49862 30-253): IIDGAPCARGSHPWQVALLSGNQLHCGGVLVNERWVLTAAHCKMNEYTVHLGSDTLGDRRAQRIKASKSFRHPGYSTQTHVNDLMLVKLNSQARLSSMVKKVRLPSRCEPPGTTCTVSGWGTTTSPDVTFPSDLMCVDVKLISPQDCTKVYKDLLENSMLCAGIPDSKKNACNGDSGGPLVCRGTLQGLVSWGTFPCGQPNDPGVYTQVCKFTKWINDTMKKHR
human KLK7 (SEQ ID NO: 4 plus a C-terminal FLAG tag), sequence (P49862 30-253): as above

Row | IC50, KLK7 direct functional assay (Mca-RPKPVE-Nval-WRK(Dnp)), bivalency corrected [1] [nM] | IC50, KLK5 direct functional assay (Boc-Val-Pro-Arg-AMC), bivalency corrected (human KLK5 [2]) [nM] | IC50, KLK7 direct functional assay (Mca-RPKPVE-Nval-WRK(Dnp)), bivalency corrected [3] [nM] | IC50, KLK5 direct functional assay (Boc-Val-Pro-Arg-AMC), bivalency corrected (cynomolgus monkey KLK5 [4]) [nM] | Kd (human KLK7 [5]) [nM] | koff (human KLK7 [5]) [s⁻¹] | kon (human KLK7 [5]) [M⁻¹ s⁻¹] | Kd (human KLK5 [6]) [nM] | koff (human KLK5 [6]) [s⁻¹] | kon (human KLK5 [6]) [M⁻¹ s⁻¹] | Kd (cynomolgus monkey KLK5 [7]) [nM] | koff (cynomolgus monkey KLK5 [7]) [s⁻¹] | kon (cynomolgus monkey KLK5 [7]) [M⁻¹ s⁻¹] | Kd (human KLK7 [8]) [nM] | koff (human KLK7 [8]) [s⁻¹] | kon (human KLK7 [8]) [M⁻¹ s⁻¹] | Kd (cynomolgus monkey KLK7) [nM] | koff (cynomolgus monkey KLK7) [s⁻¹] | kon (cynomolgus monkey KLK7) [M⁻¹ s⁻¹] | Binder
1 | 0.29 | > 10 | 0.29 | > 10 | 0.000356 | 1.22e-05 | 3.43e+07 |  |  |  |  |  |  |  |  |  |  |  |  | hu.14H11c.L2H11-hIgG1 (antibody, V domains shown, Humanized anti-KLK7 antibody, human IgG1) VH: EQQLVESGGGLIQPGGSLRLSCAASGFSFSSSYYMSWVRQAPGKGLEWVSSIYAGSSGAPYYAGWAKGRFTISRDNSKNTLYLQMNSLRAEDTAVYYCAREGFAETGGYGYAAYFNLWGPGTLVTVSS VL: DIQMTQSPSSLSASVGDRVTITCLASEDIASSVSWYQQKPGKAPKLLIYGASNLESGVPSRFSGSGSGTDYTLTISSLQPEDFATYYCLGGYSYSSTGTAFGGGTKVEIK
2 |  |  |  |  | 0.000894 | 2.52e-05 | 2.82e+07 |  |  |  |  |  |  |  |  |  |  |  |  | One-armed hu.14H11c.L2H11-hIgG1 knob-in-hole (antibody, Monovalent one-armed format) heavy: not shown VL: DIQMTQSPSSLSASVGDRVTITCLASEDIASSVSWYQKKPGKAPKLLIYGASNLESGVPSRFSGSGSGTDYTLTISSLQPEDFATYYCLGGYSYSSTGTAFGGGTKVEIK DKTHTCPPCPAPELLGGPSVFLFPPKPKDTLMISRTPEVTCVVVDVSHEDPEVKFNWYVDGVEVHNAKTKPREEQYGSTYRVVSVLTVLHQDWLNGKEYKCKVSNKALPAPIEKTISKAKGQPREPQVYTLPPSREEMTKNQVSLSCAVKGFYPSDIAVEWESNGQPENNYKTTPPVLDSDGSFFLVSKLTVDKSRWQQGNVFSCSVMHEALHNHYTQKSLSLSPGK
3 |  |  |  |  | < 0.001 | < 1e-06 | 2.16e+07 |  |  |  |  |  |  |  |  |  |  |  |  | chimeric rb.14H11c-hIgG1 (antibody, V domains shown, Rabbit variable domains (14H11 with C35a to S in VH) on human IgG1; also called Chimeric 14H11c) VH: QSLEESGGDLVKPGASLTLTCTASGFSFSSSYYMSWVRQAPGKGLEWIASIYAGSSGAPYYAGWAKGRFTISKTSSTAVTLQMSSLTAADTATYFCAREGFAETGGYGYAAYFNLWGPGTLVTVSS VL: AIEMTQSPPSLSASVGETVRIRCLASEDIASSVSWYQQKPGKPPTLLIYGASNLESGVPPRFTGSGSGTDYTLTIGGVQAEDAATYYCLGGYSYSSTGTAFGAGTKVEIK
4 | > 10 | 0.46 | > 10 | 0.56 |  |  |  |  |  |  |  |  |  |  |  |  |  |  |  | hu10C5VY (antibody, V domains shown) VH: EVQLVESGGGLVQPGGSLRLSCAASGFSLSSYGVTWVRQAPGKGLEWIGYITSVYGVSYYASWAKSRSTISRDTSKNTVYLQMGSLRAEDMAVYYCARENPDYGYAYDAWGQGTTVTVSS VL: AIRMTQSPSSFSASTGDRVTITCQASESISNELSWYQQKPGKAPKLLIYYASTLASGVPSRFSGSGSGTDFTLTISSLQPEDFATYYCAQGYGSSGVENVFGGGTKVEIK
5 | 0.37 | 0.67 | 0.37 | 0.73 |  |  |  | 0.0008 | 1.5e-05 | 2.1e+07 | 0.019 | 0.00019 | 1e+07 | < 0.001 | < 1e-06 | 5.8e+07 | 0.0023 | 9e-05 | 4e+07 | hu.10C5VY.hu14H11c.L2H11 WT (bispecific antibody, human IgG1, kappa, N297G, hIgG1 N297G knob-in-hole bispecific with Q39E/Q38K, Q39K/Q38E, S183K/V133E and S183E/V133K pairing mutations; also called anti-KLK5/KLK7 bispecific antibody without M428L/N434S) heavy 1: not shown light 1: DIQMTQSPSSLSASVGDRVTITCLASEDIASSVSWYQKKPGKAPKLLIYGASNLESGVPSRFSGSGSGTDYTLTISSLQPEDFATYYCLGGYSYSSTGTAFGGGTKVEIKRTVAAPSVFIFPPSDEQLKSGTASVECLLNNFYPREAKVQWKVDNALQSGNSQESVTEQDSKDSTYSLSSTLTLSKADYEKHKVYACEVTHQGLSSPVTKSFNRGEC heavy 2: EVQLVESGGGLVQPGGSLRLSCAASGFSLSSYGVTWVRKAPGKGLEWIGYITSVYGVSYYASWAKSRSTISRDTSKNTVYLQMGSLRAEDMAVYYCARENPDYGYAYDAWGQGTTVTVSSASTKGPSVFPLAPSSKSTSGGTAALGCLVKDYFPEPVTVSWNSGALTSGVHTFPAVLQSSGLYSLESVVTVPSSSLGTQTYICNVNHKPSNTKVDKKVEPKSCDKTHTCPPCPAPELLGGPSVFLFPPKPKDTLMISRTPEVTCVVVDVSHEDPEVKFNWYVDGVEVHNAKTKPREEQYGSTYRVVSVLTVLHQDWLNGKEYKCKVSNKALPAPIEKTISKAKGQPREPQVYTLPPSREEMTKNQVSLSCAVKGFYPSDIAVEWESNGQPENNYKTTPPVLDSDGSFFLVSKLTVDKSRWQQGNVFSCSVMHEALHNHYTQKSLSLSPGK light 2: AIRMTQSPSSFSASTGDRVTITCQASESISNELSWYQEKPGKAPKLLIYYASTLASGVPSRFSGSGSGTDFTLTISSLQPEDFATYYCAQGYGSSGVENVFGGGTKVEIKRTVAAPSVFIFPPSDEQLKSGTASVKCLLNNFYPREAKVQWKVDNALQSGNSQESVTEQDSKDSTYSLSSTLTLSKADYEKHKVYACEVTHQGLSSPVTKSFNRGEC
6 | 0.34 | 0.54 | 0.36 | 0.58 |  |  |  | 0.0015 | 1.97e-05 | 1.5e+07 | 0.016 | 0.00018 | 1.11e+07 | 0.00024 | 1.4e-05 | 5.7e+07 | 0.003 | 7e-05 | 3e+07 | hu.10C5VY.hu14H11c.L2H11 LS (bispecific antibody, human IgG1, kappa, N297G, hIgG1 N297G knob-in-hole bispecific with M428L/N434S and the chain pairing mutations; also called anti-KLK5/KLK7 bispecific antibody with M428L/N434S (LS)) heavy 1: EQQLVESGGGLIQPGGSLRLSCAASGFSFSSSYYMSWVREAPGKGLEWVSSIYAGSSGAPYYAGWAKGRFTISRDNSKNTLYLQMNSLRAEDTAVYYCAREGFAETGGYGYAAYFNLWGPGTLVTVSSASTKGPSVFPLAPSSKSTSGGTAALGCLVKDYFPEPVTVSWNSGALTSGVHTFPAVLQSSGLYSLKSVVTVPSSSLGTQTYICNVNHKPSNTKVDKKVEPKSCDKTHTCPPCPAPELLGGPSVFLFPPKPKDTLMISRTPEVTCVVVDVSHEDPEVKFNWYVDGVEVHNAKTKPREEQYGSTYRVVSVLTVLHQDWLNGKEYKCKVSNKALPAPIEKTISKAKGQPREPQVYTLPPSREEMTKNQVSLWCLVKGFYPSDIAVEWESNGQPENNYKTTPPVLDSDGSFFLYSKLTVDKSRWQQGNVFSCSVLHEALHSHYTQKSLSLSPGK light 1: DIQMTQSPSSLSASVGDRVTITCLASEDIASSVSWYQKKPGKAPKLLIYGASNLESGVPSRFSGSGSGTDYTLTISSLQPEDFATYYCLGGYSYSSTGTAFGGGTKVEIKRTVAAPSVFIFPPSDEQLKSGTASVECLLNNFYPREAKVQWKVDNALQSGNSQESVTEQDSKDSTYSLSSTLTLSKADYEKHKVYACEVTHQGLSSPVTKSFNRGEC heavy 2: EVQLVESGGGLVQPGGSLRLSCAASGFSLSSYGVTWVRKAPGKGLEWIGYITSVYGVSYYASWAKSRSTISRDTSKNTVYLQMGSLRAEDMAVYYCARENPDYGYAYDAWGQGTTVTVSSASTKGPSVFPLAPSSKSTSGGTAALGCLVKDYFPEPVTVSWNSGALTSGVHTFPAVLQSSGLYSLESVVTVPSSSLGTQTYICNVNHKPSNTKVDKKVEPKSCDKTHTCPPCPAPELLGGPSVFLFPPKPKDTLMISRTPEVTCVVVDVSHEDPEVKFNWYVDGVEVHNAKTKPREEQYGSTYRVVSVLTVLHQDWLNGKEYKCKVSNKALPAPIEKTISKAKGQPREPQVYTLPPSREEMTKNQVSLSCAVKGFYPSDIAVEWESNGQPENNYKTTPPVLDSDGSFFLVSKLTVDKSRWQQGNVFSCSVLHEALHSHYTQKSLSLSPGK light 2: AIRMTQSPSSFSASTGDRVTITCQASESISNELSWYQEKPGKAPKLLIYYASTLASGVPSRFSGSGSGTDFTLTISSLQPEDFATYYCAQGYGSSGVENVFGGGTKVEIKRTVAAPSVFIFPPSDEQLKSGTASVKCLLNNFYPREAKVQWKVDNALQSGNSQESVTEQDSKDSTYSLSSTLTLSKADYEKHKVYACEVTHQGLSSPVTKSFNRGEC
